Tests used:
LNCaPs (prostate cancer) = test: DHT-stimulated invasion of LNCaPs through Matrigel; format: cell-based; conditions: DX-1000 1 nM
Procedure: (§1) Firstly, DX-1000 (1 nM) inhibited both DHT-stimulated invasion of LNCaPs (prostate cancer) and HT-1080 (fibrosarcoma) through Matrigel, processes known to be dependent on the plasminogen/plasmin system.

HT-1080 (fibrosarcoma) = test: Invasion of HT-1080 through Matrigel; format: cell-based; conditions: DX-1000 1 nM
Procedure: as §1

gelatinases = test: Expression and activation of gelatinases; format: cell-based
human endothelial cells = test: Tube formation of human endothelial cells; format: cell-based; conditions: 1-10 nM; plated on Matrigel or collagen type I
mouse endothelial cells = test: Tube formation of mouse endothelial cells; format: cell-based; conditions: 1-10 nM; plated on Matrigel or collagen type I
[1] = Global coagulation screening tests
[2] = Platelet function screening test
[3] = tested on: MMP-14 expressed in synovial cells; test: Collagen film degradation by human synovial cells (Example 8); format: cell-based; conditions: human fibroblasts on bovine type I collagen film, 4 days, data not shown; for collagen film degradation: 37° C.
Procedure: Human rheumatoid synovial fibroblasts spontaneously express high levels of MMP-14 (Miller et al, 2009 Arthritis Rheum. 2009 March; 60(3):686-97). When they are cultured on collagen film, MMP-14 expressed in synovial cells effectively degrades the collagen film. Human fibroblasts were cultured on bovine type I collagen film at 37° C. for 4 days in the presence or absence of a broad spectrum MMP-inhibitor GM6001, DX-2400 or DX-2410. Cells were then removed from collagen surface by trypsin/EDTA to reveal collagen film. Films were then fixed with 3% PFA for 30 min. and stained with Coomassie blue.

[4] = tested on: collagen-induced arthritis (CIA); test: CIA mouse model, DX-2712 as monotherapy or combined with DMARDs or BRMs (Example 7); format: in vivo, mouse (DBA/1); conditions: end of study, 31 days of therapy; number in parentheses = dose in mg/kg (Table 12); DX-2712 20 mg/kg IP Q2D
[5] = tested on: collagen-induced arthritis (CIA); test: DX-2400 and DX-2410 in CIA mouse model (Example 10); format: in vivo, mouse (DBA); conditions: 20 mg/kg i.p. 3x/week from day 21 after collagen injection; for development of arthritis as assessed by histological analysis of the joints: FIG. 9(A)
Procedure: 200 μg of chicken type II collagen was injected subcutaneously with complete Freunds adjuvant in DBA mice (male, 3-4 months old). After 21 days, test compounds were administered i.p. at 20 mg/kg, 3×/week. The first mouse which developed clinical symptom of arthritis was detected 26 days after collagen injection. […] FIG. 9(B) provides a description of the histology scoring system used.

human MMP-9 = human MMP-9 (Homo sapiens, UniProt P14780); test: Inhibition of human MMP-9; format: biochemical
Chain of human MMP-9 (P14780 94-707): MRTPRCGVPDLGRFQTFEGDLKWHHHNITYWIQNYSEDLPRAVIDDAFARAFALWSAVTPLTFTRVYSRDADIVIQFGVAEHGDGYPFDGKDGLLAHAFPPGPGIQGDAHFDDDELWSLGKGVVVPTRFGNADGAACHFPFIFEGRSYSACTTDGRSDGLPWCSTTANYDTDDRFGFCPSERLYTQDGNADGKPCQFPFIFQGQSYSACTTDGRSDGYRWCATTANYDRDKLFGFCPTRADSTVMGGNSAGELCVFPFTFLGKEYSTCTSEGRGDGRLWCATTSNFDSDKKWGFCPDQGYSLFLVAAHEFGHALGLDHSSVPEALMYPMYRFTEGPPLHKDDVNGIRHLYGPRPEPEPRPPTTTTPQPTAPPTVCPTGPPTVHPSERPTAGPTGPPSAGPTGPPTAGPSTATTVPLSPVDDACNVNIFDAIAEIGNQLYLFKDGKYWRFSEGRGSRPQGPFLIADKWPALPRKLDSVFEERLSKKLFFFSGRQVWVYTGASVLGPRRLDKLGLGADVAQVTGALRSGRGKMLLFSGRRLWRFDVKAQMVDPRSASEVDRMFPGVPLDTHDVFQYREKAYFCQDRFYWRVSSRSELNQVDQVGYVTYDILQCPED

mouse MMP-9 = mouse MMP-9 (Mus musculus, UniProt P41245); test: Inhibition of mouse MMP-9; format: biochemical
Chain of mouse MMP-9 (P41245 108-730): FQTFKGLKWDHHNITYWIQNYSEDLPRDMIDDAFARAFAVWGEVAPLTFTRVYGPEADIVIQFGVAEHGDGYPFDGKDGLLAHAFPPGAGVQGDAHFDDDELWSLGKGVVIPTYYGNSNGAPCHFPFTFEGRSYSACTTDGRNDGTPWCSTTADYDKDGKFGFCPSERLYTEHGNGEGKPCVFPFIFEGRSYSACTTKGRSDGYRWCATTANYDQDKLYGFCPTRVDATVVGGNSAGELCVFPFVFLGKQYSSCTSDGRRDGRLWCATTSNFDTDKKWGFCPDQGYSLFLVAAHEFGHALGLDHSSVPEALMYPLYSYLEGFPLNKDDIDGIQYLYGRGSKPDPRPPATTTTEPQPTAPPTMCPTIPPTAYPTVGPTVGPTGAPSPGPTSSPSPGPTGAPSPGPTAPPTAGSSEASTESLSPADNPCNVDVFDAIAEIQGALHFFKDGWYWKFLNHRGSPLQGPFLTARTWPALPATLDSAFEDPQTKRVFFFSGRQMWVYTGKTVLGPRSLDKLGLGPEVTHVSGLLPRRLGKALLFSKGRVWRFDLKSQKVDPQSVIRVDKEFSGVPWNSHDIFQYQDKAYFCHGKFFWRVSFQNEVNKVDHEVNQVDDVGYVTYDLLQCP

[6] = tested on: collagen-induced arthritis (CIA); test: MMP-12 inhibition in mouse collagen-induced arthritis (Example 1); format: in vivo; conditions: 20 mg/kg IP Q2D
From the text: The study design was as depicted in Table 6 below. [table]

human plasmin = target: T1, human plasmin (human, UniProt P00747 97-810, limits assumed); test: inhibition of human plasmin; method not described
T1 construct: In the cell invasion assays the plasmin is that of the cell cultures
T1 sequence (P00747 97-810 limits assumed): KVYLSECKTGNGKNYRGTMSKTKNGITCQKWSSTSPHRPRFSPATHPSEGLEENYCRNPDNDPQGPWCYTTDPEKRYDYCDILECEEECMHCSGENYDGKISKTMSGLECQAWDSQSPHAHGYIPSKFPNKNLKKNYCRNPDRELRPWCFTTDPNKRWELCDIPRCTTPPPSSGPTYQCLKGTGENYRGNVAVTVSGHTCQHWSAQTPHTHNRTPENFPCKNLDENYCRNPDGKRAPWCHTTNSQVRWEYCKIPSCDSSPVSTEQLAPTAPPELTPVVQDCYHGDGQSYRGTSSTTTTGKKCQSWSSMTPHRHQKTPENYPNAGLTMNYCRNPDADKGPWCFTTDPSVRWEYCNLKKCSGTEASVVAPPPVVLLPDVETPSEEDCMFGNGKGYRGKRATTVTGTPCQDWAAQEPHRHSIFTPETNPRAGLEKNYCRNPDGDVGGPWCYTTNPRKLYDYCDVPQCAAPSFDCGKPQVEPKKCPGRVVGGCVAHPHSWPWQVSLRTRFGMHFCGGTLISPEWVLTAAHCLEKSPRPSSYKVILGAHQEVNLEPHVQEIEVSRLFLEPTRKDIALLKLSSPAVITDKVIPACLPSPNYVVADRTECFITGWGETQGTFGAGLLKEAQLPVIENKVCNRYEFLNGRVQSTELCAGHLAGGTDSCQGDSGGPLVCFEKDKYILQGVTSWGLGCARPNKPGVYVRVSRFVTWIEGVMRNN

DX-1000: Kunitz domain polypeptide that inhibits human plasmin; SEQ ID NO:100 or SEQ ID NO:200 (EAMHSFCAFKAETGPCRARFDRWFFNIFTRQCEEFIYGGCEGNQNRFESLEECKKMCTRD)
DHT-stimulated invasion of LNCaPs through Matrigel (LNCaPs (prostate cancer)): inhibited
invasion of HT-1080 through Matrigel (HT-1080 (fibrosarcoma)): inhibited
expression and activation of gelatinases (gelatinases): down-regulated efficiently
tube formation of human endothelial cells (human endothelial cells): efficiently blocked
tube formation of mouse endothelial cells (mouse endothelial cells): efficiently blocked
effects on global coagulation screening tests [1]: no clinically significant effects
effects on a platelet function screening test [2]: no clinically significant effects

CNC(=O)[C@H](Cc1c[nH]c2ccccc12)NC(=O)[C@@H](CC(=O)NO)CC(C)C [GM6001, reference compound]
collagen film degradation [3]: completely abolished

Etanercept [Enbrel (30)]
% change in AI Score [4]: −70.37%

CN(Cc1cnc2nc(N)nc(N)c2n1)c1ccc(C(=O)N[C@@H](CCC(=O)O)C(=O)O)cc1 [MTX (3), methotrexate]
% change in AI Score [4]: −80.74%

B1: DX-2400: exemplary MMP-14 antibody; VH SEQ ID NO:59, VL SEQ ID NO:23 (antibody, V domains shown)
VH: EVQLLESGGGLVQPGGSLRLSCAASGFTFSLYSMNWVRQAPGKGLEWVSSIYSSGGSTLYADSVKGRFTISRDNSKNTLYLQMNSLRAEDTAVYYCARGRAFDIWGQGTMVTVSS
VL: DIQMTQSPSSLSASVGDRVTITCRASQSVGTYLNWYQQKPGKAPKLLIYATSNLRSGVPSRFSGSGSGTDFTLTISSLQPEDFATYYCQQSYSIPRFTFGPGTKVDIK
inhibition of collagen film degradation at 500 nM [3]: almost complete inhibition
collagen film degradation [3]: inhibited collagen degradation in a dose-dependent manner
redness and swelling of paws [5]: did not significantly improve
development of arthritis as assessed by histological analysis of the joints [5]: significantly attenuated

B2: DX-2410: exemplary MMP-14 antibody; VH SEQ ID NO:24, VL SEQ ID NO:25 (antibody, V domains shown)
VH: EVQLLESGGGLVQPGGSLRLSCAASGFTFSVYGMVWVRQAPGKGLEWVSVISSSGGSTWYADSVKGRFTISRDNSKNTLYLQMNSLRAEDTAVYYCARPFSRRYGVFDYWGQGTLVTVSS
VL: DIQMTQSPSSLSASVGDRVTITCRASQGIRNFLAWYQQKPGKVPKLLIYGASALQSGVPSRFSGSGSGTDFTLTISSLQPEDVATYYCQKYNGVPLTFGGGTKVEIK
inhibition of collagen film degradation at 500 nM [3]: slightly lower than DX-2400, showing degraded area
collagen film degradation [3]: inhibited collagen degradation in a dose-dependent manner
redness and swelling of paws [5]: did not significantly improve
development of arthritis as assessed by histological analysis of the joints [5]: significantly attenuated

B3: 539A-M0240-B03: selective inhibitor of MMP-9; parental isolate (sFab; IgG) (antibody, V domains shown)
VL: QYELTQPRSVSGSPGQSVTISCTGTSSDVGGYNYVSWYQQHPGKAPKLMIYDVSKRPSGVPDRFSGSKSGNTASLTISGLQAEDEADYYCCSYAGSYTLVFGGGTKLTVL
VH: EVQLLESGGGLVQPGGSLRLSCAASGFTFSTYQMVWVRQAPGKGLEWVSVIYPSGGPTVYADSVKGRFTISRDNSKNTLYLQMNSLRAEDTAVYYCARGEDYYDSSGPGAFDIWGQGTMVTVSS
inhibition of human MMP-9 activity (human MMP-9): can decrease or inhibit the activity
inhibition of mouse MMP-9 activity (mouse MMP-9): can decrease or inhibit the activity

B4: DX-2712: Dyax inhibitor of MMP-12; specific MMP-12 antibody inhibitor; VL SEQ ID NO:118, VH SEQ ID NO:120 (antibody, V domains shown)
VH: EVQLLESGGGLVQPGGSLRLSCAASGFTFSWYWMHWVRQAPGKGLEWVSGISPSGGMTMYADSVKGRFTISRDNSKNTLYLQMNSLRAEDTAVYYCARDIVGPYSAGLFDYWGRGTLVTVSS
VL: DIQMTQSPSSLSASVGDRVTITCRASQSIYTYLNWYQQKPGKAPKLLIYAASSLQSGVPSRFSGSGSGTDFTLTISSLQPEDFATYYCQQAGIFGQGTKLEIK
overall inhibition of the arthritic histological indices ([6]; compared to untreated mice, p<0.05, FIG. 3): 29%
disease development (arthritic score) ([6]; days 36-46, FIG. 2): arrested
arthritic score ([6]; last day of the study, FIG. 2): sharp increase in arthritic score
disease development (arthritic score) ([6]; through day 35, FIG. 2): delayed disease development
% change in AI Score [4]: −34.07%

B5: DX-1000 (designed binder)
chain: EAMHSFCAFKAETGPCRARFDRWFFNIFTRQCEEFIYGGCEGNQNRFESLEECKKMCTRD
Ki (human plasmin): 0.088 nM
